Target: Flag-tagged HCMV gp68 expressed by recombinant vaccinia virus (human cytomegalovirus, UniProt P16739)
Assay: co-IP
Settings: one partner purified

Sequence of Flag-tagged HCMV gp68 expressed by recombinant vaccinia virus (P16739 24-345): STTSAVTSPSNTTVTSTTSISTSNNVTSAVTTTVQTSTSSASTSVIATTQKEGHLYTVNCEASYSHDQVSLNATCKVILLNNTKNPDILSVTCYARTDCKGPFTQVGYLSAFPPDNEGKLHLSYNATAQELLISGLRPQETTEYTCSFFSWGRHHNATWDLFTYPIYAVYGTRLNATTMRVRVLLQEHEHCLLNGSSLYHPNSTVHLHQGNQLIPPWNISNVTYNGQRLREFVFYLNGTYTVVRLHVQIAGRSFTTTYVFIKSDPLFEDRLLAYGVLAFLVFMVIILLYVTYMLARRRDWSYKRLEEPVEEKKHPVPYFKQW

B1: palivizumab (antibody, V domains shown)
VH: QVTLRESGPALVKPTQTLTLTCTFSGFSLSTSGMSVGWIRQPPGKALEWLADIWWDDKKDYNPSLKSRLTISKDTSKNQVVLKVTNMDPADTATYYCARSMITNWYFDVWGAGTTVTVSS
VL: DIQMTQSPSTLSASVGDRVTITCKCQLSVGYMHWYQQKPGKAPKLLIYDTSKLASGVPSRFSGSGSGTEFTLTISSLQPDDFATYYCFQGSGYPFTFGGGTKLEIK
notes: also called IgG1 isotype control antibody; source: bought: MedImmune
B1: binds.

From article PMC4022731 (PLoS Pathogens, 2014)
